One test deals with mouse ORC1 BAH domain. Particulars: mouse version; four-residue aromatic cage; ref Kuo et al., 2012; cited from earlier work.
For the next test, the system named is human ORC1 BAH domain. Particulars: human version; ref Kuo et al., 2012; cited from earlier work.
Test [1] addresses H3 peptide monomethylated at K4. Nature of the test: ITC.
Test [2] has as its target unmodified H3(1-15) peptide. Nature of the test: ITC.
The target in test [3] is H3 peptide dimethylated at K4. Nature of the test: ITC.

Entries after “also recorded” stand apart in the source; their conditions may differ.

Take “H4K20me2: histone mark H4K20me2 / H4K20me2 peptide bound by metazoan ORC1 BAH domains”: the “recognition by ORC1 BAH domain” value in the test on mouse ORC1 BAH domain was “can use a four-residue aromatic cage to recognize the methyllysine of H4K20me2; also recorded: specifically recognize”; with human ORC1 BAH domain, “specifically recognize”.

B1: Arabidopsis thaliana ORC1b BAH-PHD cassette (domain or fragment)
chain: SETIKKTKKKKRVYYNKVEFDETEFEIGDDVYVKRREDSNSDEEEDPEIEDCQICFKSDTNIMIECDDCLGGFHLKCLKPPLKEVPEGDWICQFCEVKKSGQSQTLDLPKPPEGKKLARTMREKLLSGDLWAARIDKLWKEVDDGVYWIRARWYMIPEETVSGRQPHNLKRELYLTNDFADIEMECILRHCSVKCPKEFSKASNDGDDVFLCEYEYDVHWRSFKRLAELADG
Consider B1, for which the results for the fold decrease of the binding against the unmodified H3 peptide in test [1] and in test [3] were 4 fold and 10 fold, respectively. The molecule also yielded a Kd in test [2] of 3000 nM.

The values above are taken from paper PMC4775424 (Structure (London, England : 1993), 2016).
